Experimental data taken from patent US20250002527A1, “STEROID COMPOUND AND CONJUGATE THEREOF” (DUALITY BIOLOGICS (SUZHOU) CO., LTD., priority 2021, published 2025).

B1: Conjugate 19: antibody BIIB059 reacted with Compound 9 "to give Conjugate 19"; 4.75 by LC-MS (conjugate, chains of the INN, looked up)
VH: DVQLVESGGGLVKPGGSLRLSCAASGFTFSTYTMSWVRQAPGKGLEWVATISPGDSFGYYYPDSVQGRFTISRDNAKNSLYLQMNSLRAEDTAVYYCTRDIYYNYGAWFAYWGQGTLVTVSS
VL: DIQLTQSPSSLSASVGDRVTITCKASQSVDYDGDSYMNWYQQKPGKAPKLLIYAASTLESGVPSRFSGSGSGTDFTLTISSLQPEDFATYYCQQANEDPRTFGQGTKVEIK
modifications: Compound 9 conjugate
notes: antibody BIIB059 reacted with Compound 9 "to give Conjugate 19"; 4.75 by LC-MS
B2: Conjugate 21: antibody BIIB059 reacted with Compound 15 "to give Conjugate 21"; 4.30 by LC-MS (conjugate, chains of the INN, looked up)
VH: B1 VH
VL: B1 VL
modifications: Compound 15 conjugate
notes: antibody BIIB059 reacted with Compound 15 "to give Conjugate 21"; 4.30 by LC-MS
B3: Conjugate 20: antibody BIIB059 reacted with Compound 16 "to give Conjugate 20"; 4.27 by LC-MS (conjugate, chains of the INN, looked up)
VH: B1 VH
VL: B1 VL
modifications: conjugated to Compound 16
notes: antibody BIIB059 reacted with Compound 16 "to give Conjugate 20"; 4.27 by LC-MS

Legend:
Format in all cases: cell-based
human PBMC cells [1] = assay: TNF-α secretion from PBMC under R848 stimulation (compounds); conditions: R848 5 μM, 24 hours, mean ± standard deviation
Protocol: (§1) The compounds of the present application were tested for their inhibitory effect on the production of peripheral blood monocytes. The peripheral blood monocytes were treated in vitro with the ligand-drug conjugate at different concentrations, and IFNα and TNFα generated by the peripheral blood monocytes were quantitatively detected after a certain time. The compounds of the present invention were evaluated for in-vitro activity.
(§2) The cryopreserved human PBMC cells were resuspended in a complete medium and counted, and the cell suspension was adjusted to 2.5×10*6 cells/mL with the culture medium. After the suspension was centrifuged to collect the cells the next day, the cells were resuspended using fresh culture medium. Test compounds were diluted to 4-fold final concentration in cell culture medium, 50 μL of the compounds were added into a 96-well cell plate, and 100 μL of diluted cells ([…]) were added into each well of the 96-well plate containing the compounds, followed by addition of 50 μL R848 to a final concentration of 5 μM. The cell plate was incubated at 37° C. with 5% CO2 for 24 hours. The supernatant was collected, and the TNF-α and IFN-α concentration levels in the supernatant were detected using an ELISA kit.
TNF-α concentration assay was performed using Dakewe TNF-α ELISA kit (Cat #1117202), 100 μL of the serially-diluted cytokine standard was added into each well, 100 μL of the above supernatant diluted 10-fold was added into each well, and 100 μL of 1× dilution buffer R was added into each blank well. 50 μL of biotinylated antibody working solution was added into each well. After mixing well, the plate was covered with the plate-sealing membrane and incubated at room temperature for 3 hours. The plate was washed for 3 times: the liquid in each well was discarded, and 300 μL of 1× washing buffer working solution was added into each well; after 1 minute of residence, the liquid in the wells was discarded. The procedure was repeated for 3 times. 100 μL of Streptavidin-HRP working solution was added into each well. The plate was covered with the plate-sealing membrane and incubated at room temperature for 20 minutes. The plate was washed for 3 times, 100 μL of TMB liquid was added into each well, and the plate was incubated for 25 minutes at room temperature (18-25° C.) in the dark. The reaction was stopped by adding 100 μL stop solution rapidly to each well. The reading at a wavelength of 450 nm was detected by an M2e instrument within 10 minutes after termination.
(§3) The contents of TNF-α and IFN-α were calculated from the OD450 values.

human PBMC cells [2] = assay: IFN-α secretion from PBMC under R848 stimulation (compounds); conditions: R848 5 μM, 24 hours, mean ± standard deviation
Protocol: as §1, §2
50 μL of biotinylated antibody working solution was added into each well. After mixing well, the plate was covered with the plate-sealing membrane and incubated at room temperature for 3 hours. […] The procedure was repeated for 3 times. 100 μL of Streptavidin-HRP working solution was added into each well. The plate was covered with the plate-sealing membrane and incubated at room temperature for 20 minutes. The plate was washed for 3 times, 100 μL of TMB liquid was added into each well, and the plate was incubated for 25 minutes at room temperature (18-25° C.) in the dark. The reaction was stopped by adding 100 μL stop solution rapidly to each well. The reading at a wavelength of 450 nm was detected by an M2e instrument within 10 minutes after termination.
as §3

human PBMC cells [3] = assay: R848-induced IFNα release from PBMCs (drug conjugates, FIG. 1a); conditions: incubation concentration 300 nm
Protocol: (§4) 1a: R848-induced IFNα release from PBMCs; 1b: R848-induced TNFα release from PBMCs; 1c: R848-induced IL6 release from PBMCs, 1d: R848-induced IL8 release from PBMCs.
(§5) The inhibitory effect of the ligand-drug conjugate (ADC) of the present application on the production of IFNα by peripheral blood monocytes was examined. The peripheral blood monocytes were treated in vitro with the ligand-drug conjugate at different concentrations, and IFNα and TNFα generated by the peripheral blood monocytes were quantitatively detected after a certain time. The ligand-drug conjugates were evaluated for in-vitro activity.
(§6) The cryopreserved human PBMC cells were resuspended in a complete medium and counted, and the cell suspension was adjusted to 2.5×10*6 cells/mL with the culture medium. After the suspension was centrifuged to collect the cells the next day, the cells were resuspended using fresh culture medium, and 100 μL of diluted cells ([…]) were added into a 96-well plate. The test samples were diluted to 3-fold final stimulation concentration using fresh culture medium, 50 μL of the diluted test samples were added into the 96-well cell plate, and the cell plate was incubated at 37° C. with 5% CO2 for 12 hours, followed by addition of 50 μL 20 μM R848 each well. The cell plate was incubated at 37° C. with 5% CO2 for 20 hours. The supernatant was collected, and the cytokine concentration in the supernatant was detected using a kit.
(§7) IFN-α concentration assay was performed using Dakewe […] ELISA kit (Cat #1110012), 100 μL of the serially-diluted cytokine standard was added into each well, 100 μL of the above supernatant diluted 2-fold was added into each well, and 100 μL of 1× dilution buffer R was added into each blank well. 50 μL of biotinylated antibody working solution was added into each well. After mixing well, the plate was covered with the plate-sealing membrane and incubated at room temperature for 3 hours. […] The reading at a wavelength of 450 nm was detected by an M2e instrument within 10 minutes after termination.

human PBMC cells [4] = assay: R848-induced TNFα release from PBMCs (drug conjugates, FIG. 1b); conditions: incubation concentration 300 nm
Protocol: as §4, §5, §6
as §7, with “TNF-α” for “IFN-α”, “#1117202),” for “#1110012),”, “10-fold” for “2-fold”

human PBMC cells [5] = assay: R848-induced IL6 release from PBMCs (drug conjugates, FIG. 1c); conditions: incubation concentration 300 nm
Protocol: as §4, §5, §6
IL-6 concentration assay was performed using Dakewe IL-6 ELISA kit (Cat #DKW12-1060-096), 100 μL of serially-diluted cytokine standard was added into each well, 100 μL of the above supernatant diluted 2-fold was added into each well, and 100 μL of 1× dilution buffer R was added into each blank well. 50 μL of biotinylated antibody working solution was added into each well. After mixing well, the plate was covered with the plate-sealing membrane and incubated at room temperature for 3 hours. […] The reading at a wavelength of 450 nm was detected by an M2e instrument within 10 minutes after termination.

human PBMC cells [6] = assay: R848-induced IL8 release from PBMCs (drug conjugates, FIG. 1d); conditions: incubation concentration 300 nm
Protocol: as §4, §5, §6
IL-8 concentration assay was performed using Dakewe IL-8 ELISA kit (Cat #1110802), 100 μL of the serially-diluted cytokine standard was added into each well, 100 μL of the above supernatant diluted 2-fold was added into each well, and 100 μL of 1× dilution buffer R was added into each blank well. 50 μL of biotinylated antibody working solution was added into each well. After mixing well, the plate was covered with the plate-sealing membrane and incubated at room temperature for 3 hours. […] The reading at a wavelength of 450 nm was detected by an M2e instrument within 10 minutes after termination.

Molecule | TNF-α secretion (pg/mL) from PBMC under R848 stimulation (human PBMC cells [1]; compound 4 nM) | TNF-α secretion (pg/mL) from PBMC under R848 stimulation (human PBMC cells [1]; compound 20 nM) | TNF-α secretion (pg/mL) from PBMC under R848 stimulation (human PBMC cells [1]; compound 100 nM) | IFN-α secretion (pg/mL) from PBMC under R848 stimulation (human PBMC cells [2]; compound 20 nM) | IFN-α secretion (pg/mL) from PBMC under R848 stimulation (human PBMC cells [2]; compound 100 nM) | IFN-α secretion (pg/mL) from PBMC under R848 stimulation (human PBMC cells [2]; compound 4 nM) | IFN-α contents in the detection system (human PBMC cells [3]) | TNF-α contents in the detection system (human PBMC cells [4]) | IL-6 contents in the detection system (human PBMC cells [5]) | IL-8 contents in the detection system (human PBMC cells [6])
C[C@]12C=CC(=O)C=C1CC[C@@H]1[C@@H]2[C@@H](O)C[C@@]2(C)[C@H]1C[C@H]1O[C@@H](c3ccc(Cc4cccc(N)c4)cc3)O[C@]12C(=O)CO [Compound 14] | 868 pg/mL | 465.6 pg/mL | 471.9 pg/mL | 10.2 ± 10.2 pg/mL | 13 ± 13 pg/mL | – | – | – | – | –
C[C@@H]1C[C@H]2[C@@H]3CCC4=CC(=O)C=C[C@]4(C)[C@@]3(F)[C@@H](O)C[C@]2(C)[C@@]1(O)C(=O)CO [Dexamethasone, dexamethasone, reference compound] | 1446.5 pg/mL | 761.9 pg/mL | 396.4 pg/mL | 169.6 ± 94.4 pg/mL | 0 ± 0 pg/mL | 620.7 ± 70.4 pg/mL | – | – | – | –
B1 | – | – | – | – | – | – | 113.2 pg/mL | 761.8 pg/mL | 8861.7 pg/mL | 26565.5 pg/mL
B2 | – | – | – | – | – | – | 911.9 pg/mL | 2644.1 pg/mL | 29867.1 pg/mL | 43544.9 pg/mL
B3 | – | – | – | – | – | – | 1422.5 pg/mL | 3280.0 pg/mL | 34744.1 pg/mL | 56315.8 pg/mL
